Source: patent publication US7256011

Test system: PL-FXa-b2AR fusion protein (ED - Factor Xa cleavage site - beta2-adrenergic receptor) on HEK293 transient transfectant cells

Factor Xa
EFC activity (relative luminescent units, RLU): a difference in about 30,000 RLUs was observed over a range in concentration of FXa of about 10^-3 to 10^1 ug/mL
